Reference: US20040048243A1, “Methods and compositions for in vitro targeting” (priority 2003, published 2004)
No end group written: not given here.

What was measured:
[1] = tested on: cells infected by targeted phage vectors; test: Enhancement of phage transduction by genotoxic agents or genetic trans-complementation; assay type: cell-based; settings: genotoxic drug 10 μM added 36 hours after infection, analysis at 72 hours post-infection
Description: Semi-confluent cells were infected with 10^5 TU of phage per cell for 4 hours in serum free media, after which fresh medium supplemented with FCS was added (no phage were washed out or removed). In some experiments, a phage admixture of forward and reverse clones at 10^10 TU (forward/reverse molar ratio=1) was tested. Next, cells were incubated for 36 hours followed by the addition of genotoxic drugs (topotecan, 10 μM; cisplatin, 10 μM) or administration of UV radiation (15 J/m^2) with a cross-linker apparatus (UV Stratalinker Model 2400; Stratagene). At 72 hours post-infection, the cells were analyzed for transduction of a reporter gene (β-gal or GFP), and gene expression was normalized per cell number relative to controls.

rhAngiostatin [2] = molecular target: T1, rhAngiostatin (Homo sapiens, UniProt P00747); test: Panning of CX7C phage library on rhAngiostatin (clone frequency); assay type: binding; settings: clones sequenced after panning on rhAngiostatin
T1 construct: rh-Angiostatin and rh-Endostatin were produced by EntreMed, Inc; purchased EntreMed, Inc. (Rockville, Md.)
T1 sequence (P00747 79-466 limits assumed): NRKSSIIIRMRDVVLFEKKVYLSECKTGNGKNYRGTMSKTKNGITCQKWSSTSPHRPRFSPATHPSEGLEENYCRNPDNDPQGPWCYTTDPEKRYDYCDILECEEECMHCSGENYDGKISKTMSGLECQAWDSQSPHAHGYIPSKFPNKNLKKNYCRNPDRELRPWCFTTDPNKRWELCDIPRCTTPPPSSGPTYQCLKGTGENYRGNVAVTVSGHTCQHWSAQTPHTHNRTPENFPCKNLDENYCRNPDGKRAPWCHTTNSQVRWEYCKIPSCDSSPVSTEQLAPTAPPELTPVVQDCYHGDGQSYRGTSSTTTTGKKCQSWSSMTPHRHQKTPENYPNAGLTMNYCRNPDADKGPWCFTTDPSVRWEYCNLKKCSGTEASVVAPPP
Description: (§1) A phage library displaying random cyclic peptides with the structure CX7C (C, cysteine; X, any residue) was prepared. An aliquot of the library containing 3×10^10 transducing units (TU) was screened with rhAngiostatin protein coated on microtiter wells as described (Koivunen et al 1993). In the first and second panning the amount of protein used was 10 μg/well. To increase the stringency of panning, the wells were coated with a decreased concentration of rhAngiostatin protein (100 ng/well) in the third panning. Phage remained bound after extensive washing. Bound phage were recovered by infection into F-pilus positive K91 bacteria. To determine the specificity of rhAngiostatin binding, selected phage were assayed as described but using rh-Endostatin and BSA proteins to coat the wells. In all assays, insertless phage (fdtet) was used as a control.
(§2) Phage were sequenced from randomly selected clones after three rounds of panning (Koivunen et al., 1994, 1995; Pasqualini et al., 1995). A number of distinct angiostatin-targeting sequences were identified (Table 10). Randomly selected clones from rounds II and III were sequenced. Amino acid sequences of the phagemid encoded peptides were deduced from nucleotide sequences. A consensus sequence appeared on the third round in 61% of the sequences examined (26 out of 42)—CWSLEXXKC (SEQ D NO: 141). Including the closely related sequence CWSAEWTKC (SEQ ID NO: 142) the consensus motif accounted for 71% of Angiostatin binding peptides. The ratios in the last two columns of Table 10 were calculated by dividing the number of colonies recovered from rhAngiostatin-coated wells by those recovered from rh-Endostatin or BSA wells.

[3] = tested on: antibodies present in the serum; test: ELISA of sera on immobilized GST-fusion peptides; assay type: binding, human; settings: for reactivity of serum against peptide in presence of the corresponding synthetic peptide: data not shown; for ELISA reactivity of patient serum with GST-fusion peptide: serum of the patients selected for the screenings, GST alone as negative control
Description: A 20 μg/ml solution of purified GST or GST-fusion proteins in 0.1M NaHCO3 was used to coat maxisorp multi-well plates (Nalge Nunc International Corporation) and incubated overnight at 4° C. The plates were blocked in a blocking buffer (4% milk, 2% casein, and 0.05% Tween-20) for 3-4 hours. A series of […] (1:100-1:1200) of sera from prostate cancer patients or healthy individuals was added and incubated for 1.5 hours and then washed five times with washing buffer (1% milk, 0.5% casein, and 0.025% Tween-20), followed by incubation at 4° C. with anti-human allaline phosphatase-conjugated antibodies (Gibco). The plates were then washed six times in washing buffer and developed using p-NPP (Sigma) as a substrate. An automatic ELISA plate reader (BIO-TEK instrument) recorded the results at OD405 nm.
Probabilities of survival for each group were estimated using the Kaplan-Meier method. A log-rank test was implemented in order to detect significant differences between the groups. Reactivity was considered to be detected if the ratio between GST-peptide and GST alone was greater or equal to two by the ELISA data. The Cox proportional hazards model was applied to analyze the effect of single and multiple risk factors in association with survival. Martingale residual plots were used to assess the proportional hazard assumption. P-values less than 0.05 were considered significant. All analyses were performed using SPLUS statistical software.
ELISA was performed to assess if the peptides could be specifically recognized by the antibodies present in the serum of the patients selected for the screenings. Peptides A (CHQKPWEC, SEQ ID NO: 58), B (CKDRFERC, SEQ ID NO: 59), and C (CNVSDKSC, SEQ ID NO: 60) were produced as GST-fusion proteins and immobilized onto microtiter wells, along with GST alone as a negative control. For each sample tested, a series of 100-fold dilutions was performed. […] The reactivity of each serum against peptides A, B and C was inhibited by the corresponding synthetic peptides (data not shown).
The reactivity profile of 91 sera obtained from clinically annotated prostate cancer patients was examined. Sera from 34 healthy individuals were also tested as a control for specificity. ELISA was performed to evaluate each serum using the three selected peptides (A, B, and C). The sera obtained from patients with prostate cancer were divided into three groups: 35 originated from patients with localized adenocarcinomas, 27 from patients with metastatic androgen-dependent disease, and 29 originated from patients with metastatic androgen-independent disease.

[4] = tested on: IgG from the ovarian cancer patient; test: Binding of phage to IgGs isolated from ovarian cancer patient ascites or serum; parameters: species or system human
Source text: FIG. 22. Binding of phage containing the CVPELGHEC (SEQ ID NO: 271) and CFELGFELGC (SEQ ID NO: 272) targeting peptides to IgG's isolated from ovarian cancer patient #2 ascites, normal serum and BSA.
FIG. 23. Binding of phage containing the CVPELGHEC (SEQ ID NO: 271) targeting peptide to IgG's isolated from normal serum or from ascites of ovarian cancer patient #1 or #2. Control fd-tet phage contained no insert DNA.
FIG. 24. Binding of phage containing the CVPELGHEC (SEQ ID NO: 271) targeting peptide to IgG's isolated from serum of ovarian cancer patient #2, normal serum or BSA.
To select peptides specific to the ascitic fluid of ovarian cancer patients, IgGs from normal donor serum and ovarian cancer cell free ascitic fluid were bound to Protein agarose (Pierce) in the Pierce acetate, pH5 binding buffer. A two step biopanning procedure was employed in which the first step involved pre-clearing the phage peptide library by incubating it with IgGs isolated from normal donor serum in order to remove common antigens. This was followed by a second step where the pre-cleared library was used to screen cancer specific IgGs. Approximately 10^8 transforming units were added to the IgGs for the panning procedure. The resultant IgG-bound phage were recovered by eluting the phage with 0.1M glycine buffer, pH2.2, neutralizing the phage with 0.1 volume 1 M Tris-Cl, pH 9, and using the phage to infect stationary phase Escherichia coli strain K91. Serial dilutions of phage infected-K91 were plated onto tetracycline (40 μg/ml) LB agar plates and grown overnight at 37° C. Individual clones were picked, amplified, and precipitated for subsequent rounds of panning. A total of three rounds of selection were performed. Phage clones from the second and third rounds were subject to PCR followed by sequence analysis to evaluate enrichment of the most consistently binding peptide sequences.

CD13 (Aminopeptidase N) = test: competition against rhAngiostatin binding to coated CD13, 0.5 µg peptide; not shown
Sequence of CD13 (Aminopeptidase N) (P15145 2-963): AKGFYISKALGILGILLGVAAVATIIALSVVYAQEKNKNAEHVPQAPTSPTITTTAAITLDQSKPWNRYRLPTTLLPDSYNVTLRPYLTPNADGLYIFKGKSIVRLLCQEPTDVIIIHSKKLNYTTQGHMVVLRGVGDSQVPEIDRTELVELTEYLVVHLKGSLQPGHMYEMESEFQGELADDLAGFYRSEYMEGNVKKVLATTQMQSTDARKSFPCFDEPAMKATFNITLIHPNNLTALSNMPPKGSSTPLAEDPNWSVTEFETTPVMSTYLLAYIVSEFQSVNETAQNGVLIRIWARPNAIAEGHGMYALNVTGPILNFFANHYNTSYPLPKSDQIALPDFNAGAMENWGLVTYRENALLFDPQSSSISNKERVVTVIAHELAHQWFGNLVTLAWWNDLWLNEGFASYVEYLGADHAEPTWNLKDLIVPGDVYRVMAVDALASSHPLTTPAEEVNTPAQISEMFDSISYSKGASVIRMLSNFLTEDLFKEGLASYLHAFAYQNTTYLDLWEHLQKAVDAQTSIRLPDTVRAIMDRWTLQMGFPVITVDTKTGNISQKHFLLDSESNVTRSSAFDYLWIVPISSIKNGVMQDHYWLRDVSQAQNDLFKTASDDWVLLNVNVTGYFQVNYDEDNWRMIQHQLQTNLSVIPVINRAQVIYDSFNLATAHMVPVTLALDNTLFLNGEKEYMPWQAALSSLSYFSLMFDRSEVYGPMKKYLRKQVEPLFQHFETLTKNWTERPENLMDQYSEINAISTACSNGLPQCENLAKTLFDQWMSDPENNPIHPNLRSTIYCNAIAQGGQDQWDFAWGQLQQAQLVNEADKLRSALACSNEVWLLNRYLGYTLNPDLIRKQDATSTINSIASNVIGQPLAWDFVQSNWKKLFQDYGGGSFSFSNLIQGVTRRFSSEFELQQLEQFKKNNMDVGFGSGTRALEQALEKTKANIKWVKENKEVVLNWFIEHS

rhAngiostatin [5] = molecular target: T2, rhAngiostatin (human, UniProt P00747 98-357, limits assumed); test: phage binding to coated wells; colonies from rhAngiostatin wells divided by those from BSA wells
T2 sequence (P00747 98-357 limits assumed): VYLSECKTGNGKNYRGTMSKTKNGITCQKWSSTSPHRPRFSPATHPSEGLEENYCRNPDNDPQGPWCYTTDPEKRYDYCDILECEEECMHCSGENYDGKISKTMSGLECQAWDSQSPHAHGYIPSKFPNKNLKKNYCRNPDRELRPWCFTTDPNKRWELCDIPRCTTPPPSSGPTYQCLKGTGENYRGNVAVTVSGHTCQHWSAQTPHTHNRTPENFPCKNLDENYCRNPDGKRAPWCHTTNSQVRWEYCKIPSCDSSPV
Description: as §1, with “CX₇C” for “CX7C”, “3×10¹⁰” for “3×10^10”
as §2, with “CWSAEWTKC” left out

rhAngiostatin [6] = molecular target: T2, rhAngiostatin; test: phage binding to coated wells; colonies from rhAngiostatin wells divided by those from rh-Endostatin wells
Description: as §1, with “CX₇C” for “CX7C”, “3×10¹⁰” for “3×10^10”
as §2, with “CWSAEWTKC” left out

## N.N.[Cl][Pt][Cl] [cisplatin]
[1]
  gene transduction by targeted phage vectors relative to controls: several fold higher

## CC[C@@]1(O)C(=O)OCc2c1cc1n(c2=O)Cc2cc3c(CN(C)C)c(O)ccc3nc2-1 [topotecan]
[1]
  gene transduction by targeted phage vectors relative to controls: several fold higher

## CGGREFWLC
rhAngiostatin [2]
  frequency: 1/42

## CGVVSRVGC
rhAngiostatin [2]
  frequency: 1/42

## CHQKPWEC [peptide A]
[3]
  reactivity of serum against peptide in presence of the corresponding synthetic peptide: inhibited
  ELISA reactivity of patient serum with GST-fusion peptide: strong reactivity

## CKDRFERC [peptide B]
[3]
  reactivity of serum against peptide in presence of the corresponding synthetic peptide: inhibited
  ELISA reactivity of patient serum with GST-fusion peptide: strong reactivity

## CLAWVGGRC
rhAngiostatin [2]
  frequency: 1/42

## CNVSDKSC [peptide C]
[3]
  reactivity of serum against peptide in presence of the corresponding synthetic peptide: inhibited
  ELISA reactivity of patient serum with GST-fusion peptide: strong reactivity

## CQGKFSQRC
rhAngiostatin [2]
  frequency: 1/42

## CRVLADRDC
rhAngiostatin [2]
  frequency: 1/42

## CRWSSMIWC
rhAngiostatin [2]
  frequency: 1/42

## CSLQGIVGC
rhAngiostatin [2]
  frequency: 1/42

## CSRSVSRLC
rhAngiostatin [2]
  frequency: 1/42

## CVAADRYVC
rhAngiostatin [2]
  frequency: 1/42

## CVPELGHEC
[4]; FIG. 22
  phage binding to IgG from ovarian cancer patient #2 ascites versus IgG from a normal patient or BSA: very high selectivity
[4]; FIG. 23
  phage binding to IgGs from patient #2 compared to patient #1 or normal individuals: much higher affinity
[4]; FIG. 24
  phage binding to serum from patient #2 compared to BSA or normal serum: similarly high selectivity

## CWSAEWTKC
rhAngiostatin [2]
  frequency: 4/42

## CWSLEFTKC
rhAngiostatin [2]
  frequency: 5/42

## CWSLELLKC
rhAngiostatin [2]
  frequency: 2/42

## CWSLELSKC
rhAngiostatin [2]
  frequency: 10/42

## CWSLESLKC
rhAngiostatin [2]
  frequency: 4/42

## CWSLEVAKC
rhAngiostatin [2]
  frequency: 5/42

## CYGAWRVSC
rhAngiostatin [2]
  frequency: 1/42

## NGR peptide (Burg et al., 1999)
CD13 (Aminopeptidase N)
  percent inhibition of angiostatin binding to CD13: > 50%

B1: phage displaying CYGAWRVSC (peptide)
peptide: CYGAWRVSC
modifications: not fully specified (bridges); cysteine pairing not given here; also: displayed on phage
rhAngiostatin [5]
  rh-Angio/BSA (ratio of colonies recovered): 14 ratio
rhAngiostatin [6]
  rh-Angio/rhEndo (ratio of colonies recovered): 6 ratio

B2: phage displaying CWSLEVAKC (peptide)
peptide: CWSLEVAKC
modifications: not fully specified (bridges); cysteine pairing not given here; also: displayed on phage
rhAngiostatin [5]
  rh-Angio/BSA (ratio of colonies recovered): 1120 ratio
rhAngiostatin [6]
  rh-Angio/rhEndo (ratio of colonies recovered): 486 ratio

B3: phage displaying CWSLELLKC (peptide)
peptide: CWSLELLKC
modifications: not fully specified (bridges); cysteine pairing not given here; also: displayed on phage
rhAngiostatin [5]
  rh-Angio/BSA (ratio of colonies recovered): 734 ratio
rhAngiostatin [6]
  rh-Angio/rhEndo (ratio of colonies recovered): 489 ratio

B4: phage displaying CWSLELSKC (peptide)
peptide: CWSLELSKC
modifications: not fully specified (bridges); cysteine pairing not given here; also: displayed on phage
rhAngiostatin [5]
  rh-Angio/BSA (ratio of colonies recovered): 630 ratio
rhAngiostatin [6]
  rh-Angio/rhEndo (ratio of colonies recovered): 630 ratio

B5: phage displaying CWSAEWTKC (peptide)
peptide: CWSAEWTKC
modifications: not fully specified (bridges); cysteine pairing not given here; also: displayed on phage
rhAngiostatin [5]
  rh-Angio/BSA (ratio of colonies recovered): 892 ratio
rhAngiostatin [6]
  rh-Angio/rhEndo (ratio of colonies recovered): 124 ratio

B6: phage displaying CRWSSMIWC (peptide)
peptide: CRWSSMIWC
modifications: not fully specified (bridges); cysteine pairing not given here; also: displayed on phage
rhAngiostatin [5]
  rh-Angio/BSA (ratio of colonies recovered): 11 ratio
rhAngiostatin [6]
  rh-Angio/rhEndo (ratio of colonies recovered): 7 ratio

B7: phage displaying CWSLEFTKC (peptide)
peptide: CWSLEFTKC
modifications: not fully specified (bridges); cysteine pairing not given here; also: displayed on phage
rhAngiostatin [5]
  rh-Angio/BSA (ratio of colonies recovered): 958 ratio
rhAngiostatin [6]
  rh-Angio/rhEndo (ratio of colonies recovered): 958 ratio
